Reference: patent US20250035634A1, “A METHOD FOR DETECTING CLUSTERING OF RAS PROTEIN” (Nanyang Technological University, priority 2021, published 2025)

Test system: KRasWT
Assay: nanobar-guided KRasWT clustering upon EGF activation in U2OS cells
Type: cell-based
Conditions: EGF 100 ng/ml, 1 hr, mean±s.e.m.
Procedure: Cell imaging is performed with laser scanning confocal microscopy (Zeiss LSM 800 with Airyscan) and a Plan-Apochromat 100×/1.4 oil objective. EGFP is excited at 488 nm and detected at 490-570 nm. RFP is excited at 561 nm and detected at 570-645 nm. Images were taken with a resolution of 512×512 pixels, 16-bit and 124 nm pixel size. A scanning speed of 20 s/image and an averaging mode of 4 times/line can be applied. During imaging, the cells are maintained in live cell imaging solution (Thermo Fisher) at 37° C. in an on-stage incubator. […] The images are conducted with a single snap shot for display of Ras variants and the quantification. For the imaging of co-expressed K-Ras variants and CRaf-RBD, z-stack images can be taken and averaged for display and the intensity profiles. […]
To quantify the nanobar-guided clustering of Ras variants, the fluorescence intensity ratio at the nanobar end to the flat sidewall (i.e. Enrichment Index, EI) is calculated. […] Next, the nanobars covered by the cell to be analyzed are identified by a custom-written MATLAB (MathWorks) code. […] To minimize the possible human bias, all the parameters for the calculation and the sorting criteria for data validation have been kept consistent throughout the entire quantification process. After the data validation, the remaining data points are ready for plotting. […]

B1: EGF: Epidermal Growth Factor used to activate wild-type K-Ras in cells (protein, UniProt P01133 23-1207, looked up)
Pro-epidermal growth factor: PQHWSCPEGTLAGNGNSTCVGPAPFLIFSHGNSIFRIDTEGTNYEQLVVDAGVSVIMDFHYNEKRIYWVDLERQLLQRVFLNGSRQERVCNIEKNVSGMAINWINEEVIWSNQQEGIITVTDMKGNNSHILLSALKYPANVAVDPVERFIFWSSEVAGSLYRADLDGVGVKALLETSEKITAVSLDVLDKRLFWIQYNREGSNSLICSCDYDGGSVHISKHPTQHNLFAMSLFGDRIFYSTWKMKTIWIANKHTGKDMVRINLHSSFVPLGELKVVHPLAQPKAEDDTWEPEQKLCKLRKGNCSSTVCGQDLQSHLCMCAEGYALSRDRKYCEDVNECAFWNHGCTLGCKNTPGSYYCTCPVGFVLLPDGKRCHQLVSCPRNVSECSHDCVLTSEGPLCFCPEGSVLERDGKTCSGCSSPDNGGCSQLCVPLSPVSWECDCFPGYDLQLDEKSCAASGPQPFLLFANSQDIRHMHFDGTDYGTLLSQQMGMVYALDHDPVENKIYFAHTALKWIERANMDGSQRERLIEEGVDVPEGLAVDWIGRRFYWTDRGKSLIGRSDLNGKRSKIITKENISQPRGIAVHPMAKRLFWTDTGINPRIESSSLQGLGRLVIASSDLIWPSGITIDFLTDKLYWCDAKQSVIEMANLDGSKRRRLTQNDVGHPFAVAVFEDYVWFSDWAMPSVMRVNKRTGKDRVRLQGSMLKPSSLVVVHPLAKPGADPCLYQNGGCEHICKKRLGTAWCSCREGFMKASDGKTCLALDGHQLLAGGEVDLKNQVTPLDILSKTRVSEDNITESQHMLVAEIMVSDQDDCAPVGCSMYARCISEGEDATCQCLKGFAGDGKLCSDIDECEMGVPVCPPASSKCINTEGGYVCRCSEGYQGDGIHCLDIDECQLGEHSCGENASCTNTEGGYTCMCAGRLSEPGLICPDSTPPPHLREDDHHYSVRNSDSECPLSHDGYCLHDGVCMYIEALDKYACNCVVGYIGERCQYRDLKWWELRHAGHGQQQKVIVVAVCVVVLVMLLLLSLWGAHYYRTQKLLSKNPKNPYEESSRDVRSRRPADTEDGMSSCPQPWFVVIKEHQDLKNGGQPVAGEDGQAADGSMQPTSWRQEPQLCGMGTEQGCWIPVSSDKGSCPQVMERSFHMPSYGTQTLEGGVEKPHSLLSANPLWQQRALDPPHQMELTQ
modifications: Pro-epidermal growth factor
Enrichment Index (EI) of KRasWT: 1.89 ± 0.042
